# The nanobody polyreactivity screen of Harvey et al. (2022)
# Assay: yeast display, Sf9 membrane polyspecificity reagent, FACS + sequencing; frameworks hold sequencing errors
# Summary of the method: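 A synthetic nanobody library was expressed on Saccharomyces cerevisiae BJ5465 by galactose induction for 36–48 hours. The library was stained for 1 hour at 4 °C with 10% biotinylated, detergent-solubilized Sf9 membrane reagent and enriched with streptavidin microbeads before FACS. Low and high (top ~1%) gates were set on anti-HA fluorescence for expression and streptavidin fluorescence for reagent binding, and each polyreactivity label reflects the gate of origin.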
row,Sequence,polyreactivity (PSR sort gate)
1,QVQLVESGGGLVQAGGSLRLSCAASGRTFYNYAMGWYRQAPGKERELVAAITRGGSTYYADSVKGRFTISRDNAKNTVYLQMNSLKPEDTAVYYCNAYYYIPFEGRGYSKLDYWGQGTQVTVSS,high polyreactivity
2,QVQLVESGGGLVQAGGSLRLSCAASGRTFYPNAMGWYRQAPGKERELVAGIRSSGDSTYYADSVKGRFTISRDNAKNTVYLQMNSLKPEDTAVYYCNRDLTPSYDYWGQGTQVTVSS,low polyreactivity
3,QVQLVESGGGLVQAGGSLRLSCAASGRTFYPYAMGWYRQAPGKEREFVAAITWTGDSTYYADSVKGRFTISRDNAKNTVYLQMNSLKPEDTAVYYCAADLSSSPYYYGYDYWGQGTQVTVSS,low polyreactivity
4,QVQLVESGGGLVQAGGSLRLSCAASGRTFYPYAMGWYRQAPGKERELVAAIRRSDGSTYYADSVKGRFTISRDNAKNTVYLQMNSLKPEDTAVYYFAAGQGSRNQYYYWGHGTQVTVSS,high polyreactivity
5,QVQLVESGGGLVQAGGSLRLSCAASGRTFYPYAMGWYRQAPGKERELVAAISSSGGSTYYADSVKGRFTISRDNAKNTVYLQRNSLKPEYTPVYYCASYLRPGGNYYWGQGTQVTVSS,high polyreactivity
6,QVQLVESGGGLVQAGGSLRLSCAASGRTFYPYAMGWYRQATGKERELVAAIDYSSATTYYADSVKGRFTISRDNAKNTVYLQMNSLKPEDTAVYYCARVGIGVGWSKLNYWGQGTQVTVSS,low polyreactivity
7,QVQLVESGGGLVQAGGSLRLSCAASGRTFYQNVMGWSRQAPGKERELVAAITWGGGSTYYADSVKGRFTISRDNAKNTVYLQMNSLKPEDTAVYYCNRTFRSRLPTSRGYDYWGQGTQVTVSS,low polyreactivity
8,QVQLVESGGGLVQAGGSLRLSCAASGRTFYRNAMGWSRQAPGKERELVAAISSTGSTYYAESVKGRFTSSRDNAKNTVYLQMNSLKPEDTAVYYCARGVHGIFGYLGQGTQVTVSS,low polyreactivity
9,QVQLVESGGGLVQAGGSLRLSCAASGRTFYRNAMGWYRQAPGKERELVAAISSTGSTYSADSVKGRFTISRDNAKNTVYLQMNSLKPEDTAVYYCARGVHGIFGYWGQGTQVTVSS,low polyreactivity
10,QVQLVESGGGLVQAGGSLRLSCAASGRTFYRNAMGWYRQAPGKERELVARISRNGGTTYYADSVKGRFTISRDNAKNTVYLQMNSLKPEDTAVYYCAAPIYDGARGDYWGQGTQVTVSS,high polyreactivity
11,QVQLVESGGGLVQAGGSLRLSCAASGRTFYRNAMGWYRQAPGKERELVGAISQSGGSTYYADSVKGRFKISRDNAKNTVYLQMNCLIPEDTAVYSCAAGKSRRVGMDYWGQGTQVTVSS,high polyreactivity
12,QVQLVESGGGLVQAGGSLRLSCAASGRTFYRNAMGWYRQAPGKETELVAAITWSGVSTYYADSVKGRFTISRDNAKNTVYIQMNSLKPEDTAVYYCSRARVLRNGHYFQLRNYDYWGQGPQVTVSS,high polyreactivity
13,QVQLVESGGGLVQAGGSLRLSCAASGRTFYRNAMGWYRQARGKERELVAAISSRGGSTYYADSVKGRFTISRDNAKNTVYLQMNSLKPEDTAVYYCAARYLYLWADYEYGYWGQGTQVTVSS,high polyreactivity
14,QVQLVESGGGLVQAGGSLRLSCAASGRTFYRYAMGWYRQAPGKERELVAAISGSGGRTYYADSVKGRFTISRDNAKNTVYFQMNSLKPEDTAVYYCNAYPHAYTGSTREGDYWGQGTQVTVSS,high polyreactivity
15,QVQLVESGGGLVQAGGSLRLSCAASGRTFYRYAMGWYRQAPGKERELVAAITTGGGSTYYADSVKGRFTISRDNAKNTVYLQMNSLKPEETAVYYCNVYSSYTRRTLGDYWGQGTQVTVSS,high polyreactivity
16,QVQLVESGGGLVQAGGSLRLSCAASGRTFYRYAMGWYRQAPGKERELVAAITWSGGSTYYADSVKGRFTTSRDNAKNTVYFQMNSLKPEDTAVYYCARRLYPYRPTAYDYWGQGTQVTVSS,low polyreactivity

row,Sequence,polyreactivity (PSR sort gate)
1,QVQLVESGGGLVQAGGSLRLSCAASGRTFYRYAMGWYRQAPGKERELVAGITSGGITYYADSVKGRFTISRDNAKNTVYLQMNSLKPEDTAVYYCAASYAFFSYRAWYTSGNEYWGQGTQVTVSS,high polyreactivity
2,QVQLVESGGGLVQAGGSLRLSCAASGRTFYRYAMGWYRQAPGKERELVARITNRGGITYYADSVKGRFTISRDNAKNTVYLQMNSLKPEDTAVYYCAADPIGYTWAGTHGDYYNEHDYWGQGTQVTVSS,low polyreactivity
3,QVQLVESGGGLVQAGGSLRLSCAASGRTFYRYAMGWYRQAPGKERELVAVISGRGGGTYYADSVKGRFTISRDNAKNTVYLQMNSLKPEDTAVYYCAKEYWGVTPTYYYWGQGTQVTVSS,high polyreactivity
4,QVQLVESGGGLVQAGGSLRLSCAASGRTFYRYTMGWYRQAPGKERELVAAIDRRGGSTYYADSVKGRFTISRDNAKNTVYLQMNSLKPEDTAVYYCNAVTHYSFDYWGQGTQVTVSS,high polyreactivity
5,QVQLVESGGGLVQAGGSLRLSCAASGRTFYSKAMGWYRQAPGKERELVAAISSSGSSTSYADSVKGRFTMSRDNAKNTVYLQMNSLKPEDTAVYYCAARTKRRANRDYWGQGTQVTVSS,high polyreactivity
6,QVQLVESGGGLVQAGGSLRLSCAASGRTFYSNAKGWSRQAPGKERELVAGISKRGTITYYADSVKGRFTISRDNAKNTVYLQMNSLKPEDTAVYYCAAKPPSYIVKGDGRDDYWGQGTQVTVSS,high polyreactivity
7,QVQLVESGGGLVQAGGSLRLSCAASGRTFYSNAMGWYRQAPGKERELVAAIRRSRGRTYYADSVKGRFTISRDIAKNTVYLQMNSLKPEDTAVYYCATARYRAEMGYWGQGTQVTVSS,high polyreactivity
8,QVQLVESGGGLVQAGGSLRLSCAASGRTFYSNAMGWYRQAPGKERELVAAISSSGGRTFYADSVKGRFTISRDNAKNTVYLQMNSLKPEDTAVYYCAAVPGYPRDSLYNYWGQGTQVTVSS,high polyreactivity
9,QVQLVESGGGLVQAGGSLRLSCAASGRTFYSNAMGWYRQAPGKERELVAAISYNDGSTYYADSVKGRFTISRDNAKNTVYLQMNSLKPEDTAVYYCNADVGAWAWYTRYDYWGQGTQVTVSS,low polyreactivity
10,QVQLVESGGGLVQAGGSLRLSCAASGRTFYSNTIGWYRQAPGNESELVAAINRGGSTYYADSVKGRFTISRDNAKNTVYFQMNSLKPEDTAVYYCAVGYAHSSNRRYYYKKTHGYWGQGTQVTVSS,low polyreactivity
11,QVQLVESGGGLVQAGGSLRLSCAASGRTFYSYAMGWYIQAPGKERELVATINRGSGTNYADSVKGRFTISRDNAKNSVYLQMNSLKPEDSAVYSCAVDRRVLWYHMDYWGQGTKVTVSS,high polyreactivity
12,QVQLVESGGGLVQAGGSLRLSCAASGRTFYSYAMGWYRQAPGKERELVAAISAGGSTYYADSVKGRFTISRDNAKNTVYLQMNSLKPEDTAVYYCAATYSYYYARYHYWGQGTQVTVSS,high polyreactivity
13,QVQLVESGGGLVQAGGSLRLSCAASGRTFYSYAMGWYRQAPGKERELVAGITWSGTSTYYADSVKGRFTISRDNAKNTVYLQMNSLKPEDTAVYYCAAATLYSRYDYWGQGTQVTVSS,low polyreactivity
14,QVQLVESGGGLVQAGGSLRLSCAASGRTFYSYAMGWYRQAPGKERELVASISYGGGTNYADSVKGRFTISRDNAKNTVYLQMNSLKPEDTAVYYCAAKYWFFYPYDYWGQGTQVTVSS,low polyreactivity
15,QVQLVESGGGLVQAGGSLRLSCAASGRTFYSYTMGWYRPAPGKERELVAAISSRGGSTYYADSVKGRFTISRDNAKNTVYLQMNSLKPEDTAVYYCNAARYGRHLSTYDYWGQGTQVTVSS,high polyreactivity
16,QVQLVESGGGLVQAGGSLRLSCAASGRTFYTYAMGWYRQAPGKARELVAAISSSGSTYYADSVKGRFTISRDNAKNTVDLQMNSLKPEDTAGYYCNARTSRYRRGGDSWGQGTQVTVSS,high polyreactivity
